We go through 11 sequences from the Immune Epitope Database (IEDB).

One assay deals with HLA-A*01:01. The experiment in a line: IEDB peptide-MHC binding, purified MHC/direct/fluorescence; filed as Kd, often an IC50 or EC50 that approximates it; ≥ and ≤ were set here for values at or beyond the usual limits of such assays.
For another assay, the target named is HLA-A*02:01. The description is as above.
For the next assay, the target named is HLA-A*03:01. Described as above.
Another assay deals with HLA-A*11:01. Described as above.
In a further assay the target is HLA-A*31:01. The description is as above. The following applies: source organism: Giardia intestinalis.
The next assay concerns the target HLA-A*68:02. The assay is described as above.
The next assay concerns the target HLA-B*07:02. Described as above.
Another assay deals with HLA-B*08:03. The description is as above.
The next assay deals with HLA-B*15:01. Described as above.
Another assay deals with HLA-B*15:17. Described as above.
The next assay deals with HLA-B*18:01. The assay is described as above.
The target in a further assay is HLA-B*27:05. The assay is described as above. The following applies: source organism: Giardia intestinalis.
A further assay has as its target HLA-B*40:01. The description is as above. The following applies: source organism: Giardia intestinalis.
In the next assay the target is HLA-B*46:01. The assay is described as above.
The next assay has as its target HLA-B*48:01. The assay is described as above. The following applies: source organism: Giardia intestinalis.
Assay [1] deals with HLA-B*57:01. The assay is described as above.
The target of assay [2] is HLA-B*58:01. The assay is described as above.
For assay [3], the target named is HLA-B*57:01. The assay can be described thus: IEDB peptide-MHC binding, purified MHC/competitive/radioactivity; filed as Kd, often an IC50 or EC50 that approximates it; ≥ and ≤ were set here for values at or beyond the usual limits of such assays.
Assay [4] concerns the target HLA-B*58:01. Described as above.
Another assay has as its target HLA-A*24:03. The experiment in a line: IEDB peptide-MHC binding, purified MHC/direct/fluorescence; filed as Kd, often an IC50 or EC50 that approximates it; ≥ and ≤ were set here for values at or beyond the usual limits of such assays.
For another assay, the target named is HLA-A*26:01. The assay is described as above.
For the next assay, the target named is HLA-A*29:02. The assay is described as above. The following applies: source organism: Giardia lamblia ATCC 50803.
Another assay concerns the target HLA-B*27:03. The assay is described as above.
The target of a further assay is HLA-B*39:01. Described as above.
In a further assay the target is HLA-B*51:01. The description is as above.
The target of another assay is HLA-A*02:03. The assay is described as above.
The target in a further assay is HLA-A*02:11. The description is as above.
In another assay the target is HLA-A*02:12. The assay is described as above.
The next assay addresses HLA-A*02:16. Described as above. The following applies: source organism: Vibrio vulnificus CMCP6.
The target in another assay is HLA-A*02:19. The description is as above.
The target of a further assay is HLA-B*35:01. The assay is described as above.
Another assay has as its target HLA-A*69:01. The assay is described as above.
For the next assay, the target named is HLA-B*08:02. The description is as above. To be noted: source organism: Francisella tularensis subsp. tularensis FSC033.
A further assay has as its target HLA-B*15:09. The assay is described as above. The following applies: source organism: Francisella tularensis subsp. tularensis FSC033.
For another assay, the target named is HLA-A*02:06. The experiment in a line: IEDB peptide-MHC binding, purified MHC/competitive/fluorescence; filed as Kd, often an IC50 or EC50 that approximates it; ≥ and ≤ were set here for values at or beyond the usual limits of such assays. The following applies: source organism: Francisella tularensis subsp. tularensis FSC198.
[5] abbreviates: source organism: Giardia intestinalis.
Setting [6] is: source organism: Giardia lamblia ATCC 50803.
Setting [7] is: source organism: Dengue virus 3 Martinique/1243/1999.
[8] abbreviates: source organism: Dengue virus 2 Jamaica/1409/1983.
[9] abbreviates: source organism: Dengue virus 4 Philippines/H241/1956.
[10] abbreviates: source organism: Vibrio vulnificus CMCP6.
Setting [11] is: source organism: Francisella tularensis subsp. tularensis.
[12] abbreviates: source organism: Campylobacter jejuni.

In the case of INTLESMMK, the Kd (commonly the concentration at which binding is half-saturated) is at least 20 µM with HLA-A*01:01 (setting [5]); at least 20 µM with HLA-A*02:01 (setting [5]); at least 20 µM with HLA-A*03:01 (setting [5]); 12 µM with HLA-A*11:01 (setting [5]); at least 20 µM with HLA-A*31:01; at least 20 µM with HLA-A*68:02 (setting [5]). Also, the Kd with HLA-B*07:02 (setting [5]), in the assay with HLA-B*08:03 (setting [6]), with HLA-B*15:01 (setting [5]), in the assay with HLA-B*15:17 (setting [5]), in the assay with HLA-B*18:01 (setting [5]) and in the assay with HLA-B*27:05 was at least 20 µM in each case. The Kd with HLA-B*40:01, with HLA-B*46:01 (setting [5]), in the assay with HLA-B*48:01, in the assay with HLA-B*57:01 [1] (setting [5]) and with HLA-B*58:01 [2] (setting [5]) was at least 20 µM throughout.

Take KAWMVHRQW: the Kd was 0.00127 µM with HLA-B*57:01 [3] (setting [7]) and 0.00108 µM with HLA-B*58:01 [4] (setting [7]).

For the sequence KTRANDWDF, the Kd with HLA-B*57:01 [3] (setting [8]) was found to be 0.0221 µM.

As for LLIQGLKTV, the Kd was 0.002 µM in the assay with HLA-A*02:01 (setting [6]); at least 20 µM in the assay with HLA-A*03:01 (setting [6]); at least 20 µM in the assay with HLA-A*24:03 (setting [6]); at least 20 µM in the assay with HLA-A*26:01 (setting [6]); at least 20 µM in the assay with HLA-A*29:02; at least 20 µM with HLA-B*15:17 (setting [6]). Further, the Kd with HLA-B*18:01 (setting [6]), with HLA-B*27:03 (setting [6]), with HLA-B*39:01 (setting [6]), with HLA-B*46:01 (setting [6]), with HLA-B*51:01 (setting [6]) and in the assay with HLA-B*57:01 [1] (setting [6]) was at least 20 µM in each case.

With LSSRATWAKN, the dissociation constant (Kd) was determined as 1.88 µM in the assay with HLA-B*57:01 [3] (setting [9]) and 0.156 µM with HLA-B*58:01 [4] (setting [9]).

Turning to MPIAAAIGT, the Kd with HLA-A*02:01 (setting [10]), with HLA-A*02:03 (setting [10]), with HLA-A*02:11 (setting [10]), in the assay with HLA-A*02:12 (setting [10]), with HLA-A*02:16 and with HLA-A*02:19 (setting [10]) was at least 20 µM in each case. The Kd is at least 20 µM with HLA-A*03:01 (setting [10]); at least 20 µM with HLA-A*24:03 (setting [10]); at least 20 µM with HLA-A*26:01 (setting [10]); 1 µM in the assay with HLA-B*07:02 (setting [10]); at least 20 µM in the assay with HLA-B*15:01 (setting [10]); at least 20 µM with HLA-B*18:01 (setting [10]). Moreover, the Kd is at least 20 µM with HLA-B*27:03 (setting [10]), 0.003 µM with HLA-B*35:01 (setting [10]), at least 20 µM with HLA-B*46:01 (setting [10]) and at least 20 µM in the assay with HLA-B*57:01 [1] (setting [10]).

Regarding PPPPLQHPI, the Kd in the assay with HLA-A*03:01 (setting [6]), in the assay with HLA-A*24:03 (setting [6]), in the assay with HLA-A*26:01 (setting [6]), in the assay with HLA-B*15:01 (setting [6]), in the assay with HLA-B*15:17 (setting [6]) and in the assay with HLA-B*18:01 (setting [6]) was at least 20 µM each time. Further, the Kd is at least 20 µM in the assay with HLA-B*27:03 (setting [6]); at least 20 µM with HLA-B*39:01 (setting [6]); at least 20 µM with HLA-B*46:01 (setting [6]); at least 5 µM in the assay with HLA-B*51:01 (setting [6]); at least 20 µM in the assay with HLA-B*57:01 [1] (setting [6]).

As to RYSNFAWYF, the Kd with HLA-A*01:01 (setting [11]) is at least 20 µM; in the assay with HLA-A*02:01 (setting [11]), at least 20 µM; in the assay with HLA-A*11:01 (setting [11]) it was at least 20 µM; with HLA-A*24:03 (setting [11]), 0.365 µM; in the assay with HLA-A*68:02 (setting [11]) it was at least 20 µM; in the assay with HLA-A*69:01 (setting [11]), at least 20 µM. Further, the Kd in the assay with HLA-B*07:02 (setting [11]), in the assay with HLA-B*08:02, with HLA-B*08:03 (source organism: Francisella tularensis subsp. tularensis FSC033), with HLA-B*15:01 (setting [11]), with HLA-B*15:09 and with HLA-B*15:17 (setting [11]) was at least 20 µM in each case. The Kd with HLA-B*18:01 (setting [11]), in the assay with HLA-B*57:01 [1] (setting [11]), with HLA-B*58:01 [2] (setting [11]) and in the assay with HLA-A*02:06 was at least 20 µM throughout.

SFWFFHPPY: the Kd with HLA-A*02:03 (setting [12]), in the assay with HLA-A*02:11 (setting [12]), with HLA-A*02:12 (setting [12]), with HLA-A*02:19 (setting [12]), with HLA-A*03:01 (setting [12]) and with HLA-A*26:01 (setting [12]) was at least 20 µM each time. The Kd is at least 20 µM in the assay with HLA-A*68:02 (setting [12]); at least 20 µM in the assay with HLA-A*69:01 (setting [12]); at least 20 µM with HLA-B*07:02 (setting [12]); 4.99 µM with HLA-B*15:01 (setting [12]); at least 20 µM in the assay with HLA-B*27:03 (setting [12]); 0.351 µM with HLA-B*35:01 (setting [12]). For the same sequence, the Kd with HLA-B*39:01 (setting [12]), with HLA-B*46:01 (setting [12]), with HLA-B*51:01 (setting [12]) and with HLA-B*57:01 [1] (setting [12]) was at least 20 µM throughout.

For the sequence TASGINMCTL, the Kd with HLA-B*57:01 [3] (setting [7]) was found to be 5.59 µM; with HLA-B*58:01 [4] (setting [7]), 0.103 µM.

For the sequence TTEDMLAVW, the Kd with HLA-B*57:01 [3] (setting [8]) was 0.0301 µM.
